Results on one substance are retold here after publication PMC4427171.

In assay [1] the target is PfOPRTase 1–218(Δ37–58)-H6 (Plasmodium falciparum) (UniProt Q8I3Y0). Nature of the assay: crystal structure; hanging drop, 100 mM ammonium sulfate, 30% PEG 3350, 277 K; protein at 30 mg/ml; space group P212121, eight chains (four catalytic dimers) in the asymmetric unit.
Assay [2] has the same target. Described as above. This is another data set of the same source.

Read-outs that look alike come from different tables or passages of the source.

For “PfOPRTase 1–218(Δ37–58)-H6 (from UniProt Q8I3Y0 1-218) (enzyme)”, the stoichiometry N (usually a count of units in the complex or per binding partner) in assay [1] was found to be 4; in assay [2] it was 2.
